From patent publication US20250327097A1, “ORGANISMS PRODUCING LESS CROTONIC ACID” (Global Bioenergies, priority 2021, published 2025)
Changes are numbered by the printed parent chain. Numbers in names are those of the source.

B1: I283T-P284D-N287P-S322T-N388M-E421V-C430N-L432F-L434W-S436N-dG462-A463T (protein)
chain: MFLKSLREQINLLKRQGDLRIINRPVDSYLEAAAIIRRSTETKAPVPLMTNIKGYPGCSIVGGLAALSSNPEYPLSRVAMSLGLSTTASAQSIVQYLIDGLKKTPYLPVEIDSNSAPCKQNILRGEDASLAHFPIPQVHQHDGNRYVNTWGVFIVESPDGQWCNWSIQRVQYLNDRQMIALVFPSQHISDIWEEWVKIGKPMPYALVQGCEPIVPYIAGLPLLERNVNEAEYIGALYGKGIEVVKCETHDLRVPASSEVVIEGYFAITREGVEGPFGEFAGYTDNEPSLQPILSITAISWQDDPIWPVVAEGKPVDEYHTCTGIGDAAAIQNVLLTANLPVSFVWVPLYSACHLMIVSINRHWRQTHPDLTSEQLTKKVGDVIHQTRMSIKLPKIVVLDDDVDPADTESLLWALATRIHPVRKRYFYESNIFPWLNCYSEEERHNRKGKRVIIDALLPENHGTISSFDYAYPDDIKQRVLMHWETDFSHD
B2: I283T-P284D-N287P-S322T-N388M-R422F-C430N-L432F-L434W-S436N-H461V-dG462-A463T (protein)
chain: B1 chain with V421E, R422F, H461V
B3: I283T-P284D-N287P-S322T-N388M-R422F-C430N-L432F-L434W-S436N-dG462 (protein)
chain: B1 chain with V421E, R422F, T463A
B4: N287I-N388M-K394R-C430N-L432F-L434W-S436N (protein)
chain: B1 chain with T283I, D284P, P287I, T322S, K394R, V421E, T463A
B5: I283T-P284D-N287P-S322T-N388M-E421V-C430N-L432F-L434W-S436N-H461T-dG462-A463T (protein)
chain: B1 chain with H461T
B6: I283T-P284D-N287P-S322T-N388M-E421V-R422F-C430N-L432F-L434W-S436N-H461V-dG462-A463T (protein)
chain: B1 chain with R422F, H461V
B7: I283T-P284D-N287P-S322T-N388M-R422F-C430N-L432F-L434W-S436N-H461T-dG462 (protein)
chain: B1 chain with V421E, R422F, H461T, T463A
B8: I283T-P284D-N287P-S322T-N388M-C430N-L432F-L434W-S436N-H461T-dG462-A463T (protein)
chain: B1 chain with V421E, H461T
B9: I283T-P284D-N287P-S322T-N388M-R422F-C430N-L432F-L434W-S436N-dG462-A463T (protein)
chain: B1 chain with V421E, R422F
B10: I283T-P284D-N287P-S322T-N388M-E421V-R422F-C430N-L432F-L434W-S436N-H461V-dG462 (protein)
chain: B1 chain with R422F, H461V, T463A
B11: I283T-N285P-N287T-Q290E-S322T-N388M-K394R-C430A-L432F-L434W-S436N-dH461 (protein)
chain: B1 chain with D284P, N285P, P287T, Q290E, K394R, V421E, N430A, T463A
B12: I283T-P284D-N285M-N287T-S322T-N388M-K394R-C430A-L432F-L434W-S436N-G462P-A463P-I464P (protein)
chain: B1 chain with N285M, P287T, K394R, V421E, N430A, G462P, T463P, I464P
B13: I283T-P284D-N285M-N287T-S322T-N388M-K394R-C430A-L432F-L434W-S436N-C437M-G462P-A463P (protein)
chain: B1 chain with N285M, P287T, K394R, V421E, N430A, C437M, G462P, T463P
B14: N285M-N388M-K394R-C430N-L432F-L434W-S436N (protein)
chain: B1 chain with T283I, D284P, N285M, P287N, T322S, K394R, V421E, T463A
B15: I283T-N285P-N287T-Q290E-S322T-N388M-K394R-C430A-L432F-L434W-S436N-dG462 (protein)
chain: B1 chain with D284P, N285P, P287T, Q290E, K394R, V421E, N430A, T463A
B16: I283T-P284D-N287P-S322T-N388M-R422F-C430N-L432F-L434W-S436N-H461V-dG462 (protein)
chain: B1 chain with V421E, R422F, H461V, T463A
B17: I283T-P284D-N287P-S322T-N388M-E421V-R422F-C430N-L432F-L434W-S436N-H461T-dG462 (protein)
chain: B1 chain with R422F, H461T, T463A
B18: I283T-N285P-N287T-Q290E-S322T-N388M-K394R-C430A-L432F-L434W-S436N-dA463 (protein)
chain: B1 chain with D284P, N285P, P287T, Q290E, K394R, V421E, N430A, T463A
B19: I283T-P284D-N287P-S322T-N388M-E421V-C430N-L432F-L434W-S436N-H461V-dG462-A463T (protein)
chain: B1 chain with H461V
B20: I283T-P284D-N287P-S322T-N388M-E421V-R422F-C430N-L432F-L434W-S436N-H461T-dG462-A463T (protein)
chain: B1 chain with R422F, H461T
B21: I283T-P284D-N287P-S322T-N388M-R422F-C430N-L432F-L434W-S436N-H461T-dG462-A463T (protein)
chain: B1 chain with V421E, R422F, H461T
B22: I283T-P284D-i284aP-N287P-S322T-N388M-C430N-L432F-L434W-S436N-dG462 (protein)
chain: B1 chain with V421E, T463A
B23: I283T-P284D-N287P-S322T-N388M-E421V-C430N-L432F-L434W-S436N-dG462 (protein)
chain: B1 chain with T463A
B24: I283T-P284D-N287P-S322T-N388M-E421V-R422F-C430N-L432F-L434W-S436N-dG462-A463T (protein)
chain: B1 chain with R422F

Each molecule was assayed on 3-methylcrotonic acid.
Assay type: biochemical, Yersinia frederiksenii
Design: key: “+” representing a low increase in activity; “++++” representing a high increase in activity
In the case of B1, the “Activity relative to WT” value is reported as “++++”. For B2, the “Activity relative to WT” value was “++++”. In the case of B3, the “Activity relative to WT” value is reported as “++++”. B4 was tested, and the “Activity relative to WT” value was “+”. For B5, the “Activity relative to WT” value was “++++”. With B6 the “Activity relative to WT” value was “++++”. In the case of B7, the “Activity relative to WT” value is reported as “++++”. For B8, the “Activity relative to WT” value was “++++”. With B9 the “Activity relative to WT” value was “++++”. B10 was tested, and the “Activity relative to WT” value was “++++”. B11 was tested, and the “Activity relative to WT” value was “++++”. In the case of B12, the “Activity relative to WT” value is reported as “++++”. For B13, the “Activity relative to WT” value was “++++”. With B14 the “Activity relative to WT” value was “+”. For B15, the “Activity relative to WT” value was “++++”. B16 was tested, and the “Activity relative to WT” value was “++++”. With B17 the “Activity relative to WT” value was “++++”. For B18, the “Activity relative to WT” value was “++++”. In the case of B19, the “Activity relative to WT” value is reported as “++++”. With B20 the “Activity relative to WT” value was “++++”. For B21, the “Activity relative to WT” value was “++++”. For B22, the “Activity relative to WT” value was “++++”. In the case of B23, the “Activity relative to WT” value is reported as “++++”. In the case of B24, the “Activity relative to WT” value is reported as “++++”.
